Experimental findings from paper PMC4388643 are described below.

One data set can be described thus: zymography. As to conditions: glycan lost; control: nLcc4 (untreated).
The nature of data set [1]: zymography of culture media. As to conditions: glycan lost; control: rLcc4-WT (P. pastoris).
The nature of data set [2]: activity versus pH and temperature. As to conditions: glycan lost; control: nLcc4 (untreated).

B1: Lcc4 laccase (nLcc4): Endo H, 1 h to overnight (protein)
parent chain: MKALSFLTPIVTLALVAGAFASVGPVANLKIGNAAVSPDGYTRDAVVVNGATPGPLIVGNKGDNFRLNVIDELTNHTMLKSTSIHWHGFFQHGTNWADGGAFVNQCPISSGHSFSYNFQAKDQAGTFWYHSHLSTQYCDGLRGPFVVYDPKDPHKKLYDVDNESTVITLEDWYHTAARLGPRFPLGSDSTLINGLGRSATTATGDLAVIKVTRGKRYRFRLVSLSCDPFYTFSIDGHNMTIIEADAVNTKPHTVDSLEIFAGQRYSFILNANQPVDNYWVRANPNFGNVGFTNGINSAILRYDGAAVAEPATAIPPASVTPLLETDLHPLVSTPVPGSPVAGGVDKALNFVFNFDGTNFFINDATFTPPSVPVLLQILSGAQAAQDLLPSGSVIPLPALSTIELSFPATANAPGVPHPFHLHGHTFAVVRSAGSTAYNYEDPVWRDVVSTGTPAAGDNVTIRFVTDNPGPWFLHCHIDFHLEAGFAVVFAEDLPGTPAANPVPQSWSDLCPIYDALAEDDQ
Turning to B1, the enzymatic_activity result in the data set “zymography” is reported as “no change”.

B2: Lcc4 laccase (nLcc4): N75D (protein)
parent chain: MKALSFLTPIVTLALVAGAFASVGPVANLKIGNAAVSPDGYTRDAVVVNGATPGPLIVGNKGDNFRLNVIDELTNHTMLKSTSIHWHGFFQHGTNWADGGAFVNQCPISSGHSFSYNFQAKDQAGTFWYHSHLSTQYCDGLRGPFVVYDPKDPHKKLYDVDNESTVITLEDWYHTAARLGPRFPLGSDSTLINGLGRSATTATGDLAVIKVTRGKRYRFRLVSLSCDPFYTFSIDGHNMTIIEADAVNTKPHTVDSLEIFAGQRYSFILNANQPVDNYWVRANPNFGNVGFTNGINSAILRYDGAAVAEPATAIPPASVTPLLETDLHPLVSTPVPGSPVAGGVDKALNFVFNFDGTNFFINDATFTPPSVPVLLQILSGAQAAQDLLPSGSVIPLPALSTIELSFPATANAPGVPHPFHLHGHTFAVVRSAGSTAYNYEDPVWRDVVSTGTPAAGDNVTIRFVTDNPGPWFLHCHIDFHLEAGFAVVFAEDLPGTPAANPVPQSWSDLCPIYDALAEDDQ
In the case of B2, in data set [1], the enzymatic_activity entry is on record as “decreases, the N75D mutant showed activity at around 60 s”.

B3: Lcc4 laccase (nLcc4): Endo H (dLcc4) (protein)
parent chain: MKALSFLTPIVTLALVAGAFASVGPVANLKIGNAAVSPDGYTRDAVVVNGATPGPLIVGNKGDNFRLNVIDELTNHTMLKSTSIHWHGFFQHGTNWADGGAFVNQCPISSGHSFSYNFQAKDQAGTFWYHSHLSTQYCDGLRGPFVVYDPKDPHKKLYDVDNESTVITLEDWYHTAARLGPRFPLGSDSTLINGLGRSATTATGDLAVIKVTRGKRYRFRLVSLSCDPFYTFSIDGHNMTIIEADAVNTKPHTVDSLEIFAGQRYSFILNANQPVDNYWVRANPNFGNVGFTNGINSAILRYDGAAVAEPATAIPPASVTPLLETDLHPLVSTPVPGSPVAGGVDKALNFVFNFDGTNFFINDATFTPPSVPVLLQILSGAQAAQDLLPSGSVIPLPALSTIELSFPATANAPGVPHPFHLHGHTFAVVRSAGSTAYNYEDPVWRDVVSTGTPAAGDNVTIRFVTDNPGPWFLHCHIDFHLEAGFAVVFAEDLPGTPAANPVPQSWSDLCPIYDALAEDDQ
Regarding B3, in data set [2], the “other: optimal pH and temperature” value was “no change”.

B4: Lcc4 laccase (nLcc4): N458D (protein)
parent chain: MKALSFLTPIVTLALVAGAFASVGPVANLKIGNAAVSPDGYTRDAVVVNGATPGPLIVGNKGDNFRLNVIDELTNHTMLKSTSIHWHGFFQHGTNWADGGAFVNQCPISSGHSFSYNFQAKDQAGTFWYHSHLSTQYCDGLRGPFVVYDPKDPHKKLYDVDNESTVITLEDWYHTAARLGPRFPLGSDSTLINGLGRSATTATGDLAVIKVTRGKRYRFRLVSLSCDPFYTFSIDGHNMTIIEADAVNTKPHTVDSLEIFAGQRYSFILNANQPVDNYWVRANPNFGNVGFTNGINSAILRYDGAAVAEPATAIPPASVTPLLETDLHPLVSTPVPGSPVAGGVDKALNFVFNFDGTNFFINDATFTPPSVPVLLQILSGAQAAQDLLPSGSVIPLPALSTIELSFPATANAPGVPHPFHLHGHTFAVVRSAGSTAYNYEDPVWRDVVSTGTPAAGDNVTIRFVTDNPGPWFLHCHIDFHLEAGFAVVFAEDLPGTPAANPVPQSWSDLCPIYDALAEDDQ
On to B4, for which the enzymatic_activity entry in data set [1] is “abolishes”.

B5: Lcc4 laccase (nLcc4): N238D (protein)
parent chain: MKALSFLTPIVTLALVAGAFASVGPVANLKIGNAAVSPDGYTRDAVVVNGATPGPLIVGNKGDNFRLNVIDELTNHTMLKSTSIHWHGFFQHGTNWADGGAFVNQCPISSGHSFSYNFQAKDQAGTFWYHSHLSTQYCDGLRGPFVVYDPKDPHKKLYDVDNESTVITLEDWYHTAARLGPRFPLGSDSTLINGLGRSATTATGDLAVIKVTRGKRYRFRLVSLSCDPFYTFSIDGHNMTIIEADAVNTKPHTVDSLEIFAGQRYSFILNANQPVDNYWVRANPNFGNVGFTNGINSAILRYDGAAVAEPATAIPPASVTPLLETDLHPLVSTPVPGSPVAGGVDKALNFVFNFDGTNFFINDATFTPPSVPVLLQILSGAQAAQDLLPSGSVIPLPALSTIELSFPATANAPGVPHPFHLHGHTFAVVRSAGSTAYNYEDPVWRDVVSTGTPAAGDNVTIRFVTDNPGPWFLHCHIDFHLEAGFAVVFAEDLPGTPAANPVPQSWSDLCPIYDALAEDDQ
Consider B5, for which the enzymatic_activity entry in data set [1] is reported as “abolishes”.
